This passage reports ELISA OD450 results from patent US12497462.

In experiment [1] the target is IgG Control. Kind of experiment: ELISA screen GH2 (HHJ), table P1-IgG, format IgG/scFv/Etag-HRP.
In experiment [2] the target is ProL/A-HRP. Kind of experiment: ELISA screen GH2 (HHJ), table P1-PrLA, format PrI/scFv/PrA-HRP.
The target in experiment [3] is Human CD26-Fc fusion protein (human). The experiment is described as follows: ELISA screen GH2 (HHJ), table P1-CD26, format CD26/scFv/Etag-HRP.
The target in experiment [4] is IgG Control. Kind of experiment: ELISA screen of scFv clones, plate panel 'IgG Control'. Background: In an ELISA, binding on a coated surface is turned into a signal by an enzyme label.
For experiment [5], the target named is ProL/A-HRP. Kind of experiment: ELISA screen of scFv clones, plate panel 'ProL/A-HRP' (scFv quality check).
For experiment [6], the target named is Human CD26-Fc fusion protein (human). Kind of experiment: ELISA screen of scFv clones, plate panel 'CD26' (CD26-Fc fusion protein per paragraph 510).
Experiment [7] has as its target IgG Control. Kind of experiment: ELISA screen, Plate2, panel IgG.
The target of experiment [8] is Human CD26-Fc fusion protein (human). The experiment is described as follows: ELISA screen, Plate2, panel CD26.
Experiment [9] has as its target ProL/A-HRP. Kind of experiment: ELISA screen, Plate2, panel ProL/ProA-HRP.

Chain of Human CD26-Fc fusion protein (human) (chain, as listed by the source): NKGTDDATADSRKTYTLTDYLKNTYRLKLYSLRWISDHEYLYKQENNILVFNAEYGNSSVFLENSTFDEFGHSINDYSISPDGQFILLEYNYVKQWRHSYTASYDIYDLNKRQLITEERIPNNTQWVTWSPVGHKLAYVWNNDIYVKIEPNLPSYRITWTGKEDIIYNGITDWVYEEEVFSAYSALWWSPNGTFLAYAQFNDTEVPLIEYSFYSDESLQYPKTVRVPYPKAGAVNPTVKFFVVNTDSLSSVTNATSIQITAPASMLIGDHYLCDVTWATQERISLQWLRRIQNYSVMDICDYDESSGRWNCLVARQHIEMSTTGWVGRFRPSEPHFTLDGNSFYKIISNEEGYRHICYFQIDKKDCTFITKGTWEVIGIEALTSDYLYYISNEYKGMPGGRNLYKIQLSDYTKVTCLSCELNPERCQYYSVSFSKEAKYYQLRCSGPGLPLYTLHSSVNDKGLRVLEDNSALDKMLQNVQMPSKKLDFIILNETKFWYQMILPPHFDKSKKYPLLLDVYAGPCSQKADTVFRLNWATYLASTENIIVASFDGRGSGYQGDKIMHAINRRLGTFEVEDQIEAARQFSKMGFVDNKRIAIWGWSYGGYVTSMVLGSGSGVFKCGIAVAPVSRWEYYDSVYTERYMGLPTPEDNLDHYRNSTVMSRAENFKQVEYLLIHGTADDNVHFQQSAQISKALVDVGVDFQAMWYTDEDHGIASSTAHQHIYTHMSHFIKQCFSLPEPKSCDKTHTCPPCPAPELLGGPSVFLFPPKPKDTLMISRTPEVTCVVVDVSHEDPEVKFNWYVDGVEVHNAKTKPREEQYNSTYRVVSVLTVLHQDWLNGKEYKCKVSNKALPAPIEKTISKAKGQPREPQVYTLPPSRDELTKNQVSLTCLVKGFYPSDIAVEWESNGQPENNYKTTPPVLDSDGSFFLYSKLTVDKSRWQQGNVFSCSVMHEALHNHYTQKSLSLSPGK

B1: CD26-03G scFv (scFv, part only; not given: VL-VH linker and detection tag, V domains shown, not shown: another chain or arm of the molecule; small tags and cut ends)
VL: DIQMTQSPSSLSASVGDRVTITCRASQDVSSSVAWYQQKPGKAPKLLISYPGWLYSGVPSRFSGSGSGTDFTLTISSLQPEDFATYYCQQFGDFPMTFGQGTKVEIK
VH: EVQLVESGGGLVQPGGSLRLSCAASGFTIGNYGIHWVRQAPGKGLEWVAWIGPYGGYTFYADSVKGRFTISADTSKNTAYLQMNSLRAEDTAVYYCARFNNLLWNGMDYWGQGTLVTVSS
On to B1, for which the values for the ELISA OD450 in experiment [1], in [2] and in [3] were 0.05, 3.16 and 3.08, respectively.

B2: CD26-04A scFv (scFv, part only; not given: VL-VH linker and detection tag, V domains shown, not shown: another chain or arm of the molecule; small tags and cut ends)
VL: DIQMTQSPSSLSASVGDRVTITCRASQDVSGGVAWYQQKPGKAPKLLIYGTSGLYSGVPSRFSGSGSGTDFTLTISSLQPEDFATYYCQQGGDWPITFGQGTKVEIK
VH: EVQLVESGGGLVQPGGSLRLSCAASGFAINNYSIHWVRQAPGKGLEWVASIWPYGGFTSYADSVKGRFTISADTSKNTAYLQMNSLRAEDTAVYYCARFFSSYGDMDYWGQGTLVTVSS
For the molecule B2, the ELISA OD450 in [4] came out at 0.069; in experiment [5] it was 3.11; in [6], 2.92.

B3: CD26-04E scFv (scFv, part only; not given: VL-VH linker and detection tag, V domains shown, not shown: another chain or arm of the molecule; small tags and cut ends)
VL: DIQMTQSPSSLSASVGDRVTITCRASQDVNDGVAWYQQKPGKAPKLLIYWASYLYSGVPSRFSGSGSGTDFTLTISSLQPEDFATYYCQQSWNFPLTFGQGTKVEIK
VH: EVQLVESGGGLVQPGGSLRLSCAASGFTINDGFIHWVRQAPGKGLEWVAGIWPFGGSTSYADSVKGRFTISADTSKNTAYLQMNSLRAEDTAVYYCARFDVVDWGVMDYWGQGTLVTVSS
On to B3, for which the ELISA OD450 worked out at 0.05 in experiment [1], 3.08 in [2] and 3.06 in experiment [3].

B4: CD26-01D scFv (scFv, part only; not given: VL-VH linker and detection tag, V domains shown, not shown: another chain or arm of the molecule; small tags and cut ends)
VL: DIQMTQSPSSLSASVGDRVTITCRASQDVNSNVAWYQQKPGKAPKLLIFGSGGLYSGVPSRFSGSGSGTDFTLTISSLQPEDFATYYCQQYSSYPLTFGQGTKVETK
VH: EVQLVESGGGLVQPGGSLRLSCAASGFTINDSYIHWVRQAPGKGLEWVAWIWPYGGFTYYADSVKGRFTISADTSKNTAYLQMNSLRAEDTAVYYCARFLGSSSIMDYWGQGTLVTVSS
Turning to B4, the ELISA OD450 was 0.05 in experiment [4], 3.13 in experiment [5] and 0.948 in [6].

B5: CD26-12D scFv (scFv, part only; not given: VL-VH linker and detection tag, V domains shown, not shown: another chain or arm of the molecule; small tags and cut ends)
VL: DIQMTQSPSSLSASVGDRVTITCRASQDVYSWVAWYQQKPGKAPKLLIYGPGSLYSGVPSRFSGSGSGTDFTLTISSLQPEDFATYYCQQYYNYPLTFGQGTKVEIK
VH: EVQLVESGGGLVQPGGSLRLSCAASGFTINSSYIHWVRQAPGKGLEWVAGIGPYWGFTSYADSVKGRFTISADTSKNTAYLQMNSLRAEDTAVYYCARFYSSYGFMDYWGQGTLVTVSS
For the molecule B5, the results for the ELISA OD450 in [4] and in [5] were 0.051 and 3.05, respectively.

B6: CD26-03B scFv (scFv, part only; not given: VL-VH linker and detection tag, V domains shown, not shown: another chain or arm of the molecule; small tags and cut ends)
VL: DIQMTQSPSSLSASVGDRVTITCRASQDVYYFVAWYQQKPGKAPKLLISWPTGLYSGVPSRFSGSGSGTDFTLTISSLQPEDFATYYCQQYFSYPITFGQGTKVEIK
VH: EVQLVESGGGLVQPGGSLRLSCAASGFTIGNSYIHWVRQAPGKGLEWVAGIGPYWGFTSYADSVKGRFTISADTSKNTAYLQMNSLRAEDTAVYYCARFNGSSGFMDYWGQGTLVTVSS
In the case of B6, the figures for the ELISA OD450 in experiment [4] and in experiment [5] were 0.045 and 3.14, respectively.

B7: CD26-01F scFv (scFv, part only; not given: VL-VH linker and detection tag, V domains shown, not shown: another chain or arm of the molecule; small tags and cut ends)
VL: DIQMTQSPSSLSASVGDRVTITCRASQDVWGYVAWYQQKPGKAPKLLIFSSRSLYSGVPSRFSGSGSGTDFTLTISSLQPEDFATYYCQQYFNWPITFGQGTKVEIK
VH: EVQLVESGGGLVQPGGSLRLSCAASGFTISDYSIHWVRQAPGKGLEWVASIWPYGGFTSYADSVKGRFTISADTSKNTAYLQMNSLRAEDTAVYYCARFHSSSGDMDYWGQGTLVTVSS
As for B7, the results for the ELISA OD450 in [7], in [8] and in experiment [9] were 0.045, 1.29 and 2.71, respectively.

B8: CD26-01G scFv (scFv, part only; not given: VL-VH linker and detection tag, V domains shown, not shown: another chain or arm of the molecule; small tags and cut ends)
VL: DIQMTQSPSSLSASVGDRVTITCRASQDVNNSVAWYQQKPGKAPKLLIFSPTGLYSGVPSRFSGSGSGTDFTLTISSLQPEDFATYYCQQYFDFPLTFGQGTKVEIK
VH: EVQLVESGGGLVQPGGSLRLSCAASGFTIGNYGIHWVRQAPGKGLEWVAWIGPSGGYTFYADSVKGRFTISADTSKNTAYLQMNSLRAEDTAVYYCARFDVHGFHGMDYWGQGTLVTVSS
In the case of B8, the ELISA OD450 in [7] amounted to 0.047; in experiment [8] it was 2.5; in experiment [9], 2.74.

B9: CD26-10B scFv (scFv, part only; not given: VL-VH linker and detection tag, V domains shown, not shown: another chain or arm of the molecule; small tags and cut ends)
VL: DIQMTQSPSSLSASVGDRVTITCRASQDVWGYVAWYQQKPGKAPKLLIFASGALYSGVPSRFSGSGSGTDFTLTISSLQPEDFATYYCQQYFNWPITFGQGTKVEIK
VH: EVQLVESGGGLVQPGGSLRLSCAASGFTISDYSIHWVRQAPGKGLEWVASIWPYGGFTSYADSVKGRFTISADTSKNTAYLQMNSLRAEDTAVYYCARFHSSSGDMDYWGQGTLVTVSS
As for B9, the values for the ELISA OD450 in experiment [4], in experiment [5] and in experiment [6] were 0.046, 3.03 and 0.68, respectively.

B10: CD26-07H scFv (scFv, part only; not given: VL-VH linker and detection tag, V domains shown, not shown: another chain or arm of the molecule; small tags and cut ends)
VL: DIQMTQSPSSLSASVGDRVTITCKSNQNLLYSHGRTYLNWYQQKPGKAPKLLIFGTSHLYSGVPSRFSGSGSGTDFTLTISSLQPEDFATYYCYQGYHVPFTFGQGTKVEIK
VH: EVQLVESGGGLVQPGGSLRLSCKASGYTFARFGMYWVRQAPGKGLEWVAFIAPNHGYTFYADSVKGRFTISADTSKNTAYLQMNSLRAEDTAVYYCARGHWYHGYMDYWGQGTLVTVSS
With B10, the ELISA OD450 in experiment [7] is 0.047; in experiment [8] it was 2.3; in [9], 2.73.
